Tests used:
[1] = target: MrgA1-GFP (mouse) (UniProt Q91WW5); test: cell-based or functional assay
[2] = target: MrgC11-GFP (mouse) [GFP: P42212]; test: cell-based or functional assay

Substance | EC50 of calcium mobilization (FLEXstation assay) [1] | EC50 of calcium mobilization (FLEXstation assay) [2] | also measured
BAM-22P (peptide) | 2.54 µM | 0.026 µM | 
NPFF (peptide) | 2.15 µM | 0.054 µM | 
PQRF-amide (peptide) | > 10 µM | 0.126 µM | 
γ1-MSH (peptide) |  | 0.017 µM | 
R-Fa (peptide) |  |  | EC50 of calcium mobilization (HEK-MrgC11 cells) [2]: 0.46 µM
FLRF-amide (peptide) | 0.402 µM | 0.157 µM | internalization of the receptor-GFP fusion (confocal microscopy, 3 µM FLRFa, 30 min, 37° C.) [1]: > 90 % of cells
Met-ENK-RFamide (peptide) | 5.25 µM | 0.133 µM | 
Dynnorphin-14 (peptide) |  | 0.022 µM | 
FMRF-OH (peptide) | 8.2 µM | 0.544 µM | fold decrease in fold change of agonist activity against FMRFa [1]: 20 fold; fold change of agonist activity against the amidated peptide [2]: 4 to 5 fold
γ2-MSH (peptide) |  | 0.011 µM | internalization of the receptor-GFP fusion (confocal microscopy, 1 µM γ2-MSH, 30 min, 37° C.) [2]: > 90 % of cells
NPAF (peptide) |  | 0.282 µM | 
AnthoRF-amide (peptide) |  | 0.016 µM | 
BAM-15-amide (peptide) | 8.77 µM | 0.479 µM | fold change of agonist activity against BAM-15 [1]: 2.7 fold; fold change of agonist activity against BAM-15 [2]: 9 fold
R-F-OH (peptide) |  |  | EC50 of calcium mobilization (HEK-MrgC11 cells) [2]: 0.632 µM
F-M-R-(D)Fa (peptide) |  |  | EC50 of calcium mobilization (HEK-MrgA1 cells) [1]: 0.643 µM
Kiss(112-121) (peptide) |  | 0.05 µM | 
BAM3200 (peptide) | > 10 µM | 0.3 µM | 
(D)F-M-R-Fa (peptide) |  |  | EC50 of calcium mobilization (HEK-MrgA1 cells) [1]: 0.882 µM; EC50 of calcium mobilization (HEK-MrgC11 cells) [2]: 0.108 µM
RFRP-1 (peptide) |  | 1.25 µM | 
Met-Enk-RF (peptide) |  | 0.545 µM | fold change of agonist activity against the amidated peptide [2]: 4 to 5 fold
Kiss(107-121) (peptide) |  | 0.102 µM | 
RFRP-3 (peptide) |  | 0.113 µM | 
PrRP-20 (peptide) |  | 0.144 µM | 
FMRF-amide (peptide) | 0.42 µM | 0.114 µM | EC50 of calcium mobilization (HEK-MrgA1 cells) [1]: 0.42 µM; EC50 of calcium mobilization (HEK-MrgC11 cells) [2]: 0.114 µM
F-(D)M-R-Fa (peptide) |  |  | EC50 of calcium mobilization (HEK-MrgA1 cells) [1]: 1.26 µM; fold decrease in fold change of agonist activity against FMRFa [1]: 3 fold; EC50 of calcium mobilization (HEK-MrgC11 cells) [2]: 0.011 µM; fold change of agonist activity against FMRFa [2]: 10 fold
AF-2 (peptide) |  | 0.13 µM | 
BAM-15 (peptide) | 23.3 µM | 0.053 µM | 
